What was measured:
ScECM4 = target: T1, ScECM4 (Saccharomyces cerevisiae, UniProt P36156); assay: absorbance loss at […] nm; HPLC of menadione at […] nm; type: biochemical; settings: GSH 0.05 to 1 mM (spectrophotometry) or 2 mM (HPLC) required; 30 mM Tris-HCl pH 8.0, 1 mM EDTA; room temperature (HPLC)
T1 construct: gene ECM4; full-length, C-terminal His-tag kept (pET-26b NdeI/XhoI), expressed in E. coli Rosetta2 (DE3) pLysS; dimer
T1 sequence (P36156 1-370): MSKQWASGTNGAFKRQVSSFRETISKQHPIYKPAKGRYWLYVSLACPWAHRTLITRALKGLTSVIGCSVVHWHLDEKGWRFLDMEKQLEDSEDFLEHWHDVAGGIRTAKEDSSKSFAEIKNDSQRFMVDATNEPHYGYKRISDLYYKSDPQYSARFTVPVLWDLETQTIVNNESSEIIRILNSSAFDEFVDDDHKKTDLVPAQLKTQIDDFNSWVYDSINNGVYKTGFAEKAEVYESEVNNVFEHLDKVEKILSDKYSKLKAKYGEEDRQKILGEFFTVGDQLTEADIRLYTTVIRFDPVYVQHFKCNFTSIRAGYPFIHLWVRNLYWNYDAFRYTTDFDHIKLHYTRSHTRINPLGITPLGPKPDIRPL

[1] = target: the molecule itself; assay: crystal structure; microbatch under paraffin oil at 278 K, 20% PEG 2000 MME, 0.1 M Tris-HCl pH 7.0; space group P2(1), two monomers in the asymmetric unit; apo crystals and crystals soaked with 5 mM GS-menadione

Q: With CC1=C(SC[C@H](NC(=O)CC[C@H](N)C(=O)O)C(=O)NCC(=O)O)C(=O)c2ccccc2C1=O [GS-menadione] as the molecule, how does the “absorbance loss at 430 nm; HPLC of menadione at 250 nm” value (ScECM4) read?
A: ScECM4 activity measurements stated for reduction of GS-menadione to menadione in presence of glutathione

B1: ScECM4 (ECM4 from Saccharomyces cerevisiae, glutathionyl-hydroquinone reductase, Xi-class glutathione transferase) (enzyme, UniProt P36156 1-370, looked up)
chain: T1 sequence (P36156 1-370)
notes: ECM4 (Gto2), Saccharomyces cerevisiae, YKR076W; Homodimer in the crystal; The printed end of the C-terminal domain (E372) probably counts residues added by the XhoI site and vector before the His tag (surmised); also called Gto2; GHR ScECM4; source: E. coli Rosetta2 (DE3) pLysS, purified (Ni-NTA, gel filtration on Superdex 200); not shown: His6, C-terminal, kept
Q: B1 was tested. Which “stoichiometry N” value [1] did it give?
A: 2

B2: glutathionylated ScECM4 (ScECM4-SG) (enzyme, Saccharomyces cerevisiae, UniProt P36156 1-370, looked up)
chain: T1 sequence (P36156 1-370)
modifications: glutathione covalently bound to C46 (mixed disulfide bond)
notes: ECM4 (Gto2), Saccharomyces cerevisiae, YKR076W; same construct as m1, glutathionylated at C46 after soaking or co-crystallisation with GS-menadione; Same construct as m1, with glutathione on C46; Homodimer in the crystal; source: E. coli Rosetta2 (DE3) pLysS, purified (Ni-NTA, gel filtration); crystals soaked with 5 mM GS-menadione; not shown: His6, C-terminal, kept
Q: For B2, which “stoichiometry N” value [1] is on record?
A: 2

Reference: publication PMC5063366, “Crystal Structure of Saccharomyces cerevisiae ECM4, a Xi-Class Glutathione Transferase that Reacts with Glutathionyl-(hydro)quinones” (PLoS ONE, 2016)
